Experimental data taken from the RNAGym collection of RNA variant scans (doi:10.7554/elife.90254).

B1: OR4K15 (parent)
chain: GUUAACGGUCAUAGGCCAUGGAAACUAGGAGCACCAUUUCGCUGCCAGUGAAGAAAUGAACAAAGAAAAUCUGGGCCAGGCAGGCAUCAAAAGAAAUAGUCUUGCGCUCAACCAGAAAGUCUGUAAUCAUUUUAAGGGUA

Variants of: B1
Assay: self-cleavage, relative activity (ratio to wild type); higher = more cleavage; in vitro, sequencing; the parent is a self-cleaving ribozyme
Variant GUUAACGGUCAUAGGCCAUGGAAACUAGGAGCACCAUUUCGCUGCCGGUGAAGAAAUGAACAAAGAAAAUCUGGGCCAGGCAGGCAACAAAAGAAAUAGUCUUGCGCUCAACCAGAAAGUCUGUAAUCAUUUUAAGGGUA [A47G U87A] has a self-cleavage of 1.63.
With GUUAACGGUCAUAGGCCAUGGAAACUAGGAGCACCAUUUCGCUGCCUGUGAAGAAAUGAACAAAGGAAAUCUGGGCCAGGCAGGCAUCAAAAGAAAUAGUCUUGCGCUCAACCAGAAAGUCUGUAAUCAUUUUAAGGGUA [A47U A66G] the self-cleavage was 0.99.
With GUUAACGGUCAUAGGCCAUGGAAACUAGGAGCACCAUUUCGCUGCCUGUGAAGAAAUGAACAAAGAAAAUCUGGGCCAGGCAGGCAUCAAAAGAAAUAGUCUUGCGCUCAUCCAGAAAGUCUGUAAUCAUUUUAAGGGUA [A47U A111U] the self-cleavage was 0.06.
With GUUAACGGUCAUAGGCCAUGGAAACUAGGAGCACCAUUUCGCUGCCUGUGAAGAAAUGAACAAAGAAAAUCUGGGCCAGGCAGGCAUCAAAAGAAAUAGUCUUGCGCUCAACCAGAACGUCUGUAAUCAUUUUAAGGGUA [A47U A118C] the self-cleavage was 0.48.
In the case of GUUAACGGUCAUAGGCCAUGGAAACUAGGAGCACCAUUUCGCUGCCUGUGAAGAAAUGAACAAAGAAAUUCUGGGCCAGGCAGGCAUCAAAAGAAAUAGUCUUGCGCUCAACCAGAAAGUCUGUAAUCAUUUUAAGGGUA [A47U A69U], the self-cleavage is reported as 1.22.
For GUUAACGGUCAUAGGCCAUGGAAACUAGGAGCACCAUUUCGCUGCCGGUGAAGAAAUGAACAAAGAAAAUCUGGGCCAGGCAGGCAUCAAAAGAAAUAGUCUUGCGCUCAACCAGAAAGUCUGUAAUCAUUUCAAGGGUA [A47G U133C], the self-cleavage was 1.99.
GUUAACGGUCAUAGGCCAUGGAAACUAGGAGCACCAUUUCGCUGCCUGUGAUGAAAUGAACAAAGAAAAUCUGGGCCAGGCAGGCAUCAAAAGAAAUAGUCUUGCGCUCAACCAGAAAGUCUGUAAUCAUUUUAAGGGUA [A47U A52U] gave a self-cleavage of 1.2.
Work on GUUAACGGUCAUAGGCCAUGGAAACUAGGAGCACCAUUUCGCUGCCUGUGAGGAAAUGAACAAAGAAAAUCUGGGCCAGGCAGGCAUCAAAAGAAAUAGUCUUGCGCUCAACCAGAAAGUCUGUAAUCAUUUUAAGGGUA [A47U A52G] yielded a self-cleavage of 0.81.
Variant GUUAACGGUCAUAGGCCAUGGAAACUAGGAGCACCAUUUCGCUGCCGGUGAAGAAAUGAACAAAGAAAAUCUGGGCCAGGCAGGCAUCAAAAGAAAUAGUCUUGCGCUCAACCAGAAAGUCUGCAAUCAUUUUAAGGGUA [A47G U124C] has a self-cleavage of 0.32.
For GUUAACGGUCAUAGGCCAUGGAAACUAGGAGCACCAUUUCGCUGCCGGUGAAGAAAUGAACAAAGAAAAUCUGGGCCAGGCAGGCAUCAAAAGAAAUAGUCUUGCGCUCAACCAGAAAGCCUGUAAUCAUUUUAAGGGUA [A47G U120C], the self-cleavage was 0.48.
For GUUAACGGUCAUAGGCCAUGGAAACUAGGAGCACCAUUUCGCUGCCGGUGAAGAAAUGAACAAAGAAAAUCUGGGCCAGGCAGGCAUCAAAAGAAAUAGUCUUGCGCACAACCAGAAAGUCUGUAAUCAUUUUAAGGGUA [A47G U108A], the self-cleavage was 0.01.
With GUUAACGGUCAUAGGCCAUGGAAACUAGGAGCACCAUUUCGCUGCCGGUGAAGAAAUGAACAAAGAAAAUCUGGGCCAGGCAGGCAUCAAAAGAAAUAGUCUUGCGCUCAACCAGAAAGUCAGUAAUCAUUUUAAGGGUA [A47G U122A] the self-cleavage was 1.11.
For GUUAACGGUCAUAGGCCAUGGAAACUAGGAGCACCAUUUCGCUGCCGGUGAAGAAAUGAACAAAGAAAAUCUGGGCCAGGCAGGCAUCAAAAGAAAUAGUCUUGCGCUCAACCAGAAAGUCCGUAAUCAUUUUAAGGGUA [A47G U122C], the self-cleavage was 0.62.
Work on GUUAACGGUCAUAGGCCAUGGAAACUAGGAGCACCAUUUCGCUGCCUGUGGAGAAAUGAACAAAGAAAAUCUGGGCCAGGCAGGCAUCAAAAGAAAUAGUCUUGCGCUCAACCAGAAAGUCUGUAAUCAUUUUAAGGGUA [A47U A51G] yielded a self-cleavage of 0.86.
For GUUAACGGUCAUAGGCCAUGGAAACUAGGAGCACCAUUUCGCUGCCGGUGAAGAAAUGAACAAAGAAAAUCUGGGCCAGGCAGGCAUCAAAAGAAAUAGUCUUGCGCUCAACCAGAAAGUCUGUAAUCAUUAUAAGGGUA [A47G U132A], the self-cleavage was 1.55.
In the case of GUUAACGGUCAUAGGCCAUGGAAACUAGGAGCACCAUUUCGCUGCCUGUGAAGAAAUGAACAAAGAAAAUCUGGGCCAGGCAGGCAUCAAAAGAAAUAGUCUUGCGCUCAACCGGAAAGUCUGUAAUCAUUUUAAGGGUA [A47U A114G], the self-cleavage is reported as 0.21.
For GUUAACGGUCAUAGGCCAUGGAAACUAGGAGCACCAUUUCGCUGCCUGUGAAGAAAUGAACAAAGAAAAUCUGGGCCAGGCCGGCAUCAAAAGAAAUAGUCUUGCGCUCAACCAGAAAGUCUGUAAUCAUUUUAAGGGUA [A47U A82C], the self-cleavage was 0.21.
GUUAACGGUCAUAGGCCAUGGAAACUAGGAGCACCAUUUCGCUGCCUGUGAAGAAAUGAACAAAGAAAAUCUGGGCCAGGCUGGCAUCAAAAGAAAUAGUCUUGCGCUCAACCAGAAAGUCUGUAAUCAUUUUAAGGGUA [A47U A82U] showed a self-cleavage of 0.17.
For GUUAACGGUCAUAGGCCAUGGAAACUAGGAGCACCAUUUCGCUGCCUGUGAAGAAAUGAACAAAGAAAAUCUGGGCCAGGCAGGCGUCAAAAGAAAUAGUCUUGCGCUCAACCAGAAAGUCUGUAAUCAUUUUAAGGGUA [A47U A86G], the self-cleavage was 0.23.
GUUAACGGUCAUAGGCCAUGGAAACUAGGAGCACCAUUUCGCUGCCUGUGAAGAAAUGGACAAAGAAAAUCUGGGCCAGGCAGGCAUCAAAAGAAAUAGUCUUGCGCUCAACCAGAAAGUCUGUAAUCAUUUUAAGGGUA [A47U A59G] showed a self-cleavage of 0.62.
GUUAACGGUCAUAGGCCAUGGAAACUAGGAGCACCAUUUCGCUGCCUGUGAAGAAAUGAACAGAGAAAAUCUGGGCCAGGCAGGCAUCAAAAGAAAUAGUCUUGCGCUCAACCAGAAAGUCUGUAAUCAUUUUAAGGGUA [A47U A63G] showed a self-cleavage of 0.8.
Work on GUUAACGGUCAUAGGCCAUGGAAACUAGGAGCACCAUUUCGCUGCCUGUGAAGAAAUGAACAAAGAAAAUCUGGGCCAGGCAGGCAUCAAAAGAAAUGGUCUUGCGCUCAACCAGAAAGUCUGUAAUCAUUUUAAGGGUA [A47U A98G] yielded a self-cleavage of 0.16.
For GUUAACGGUCAUAGGCCAUGGAAACUAGGAGCACCAUUUCGCUGCCUGUGAAGAAAUGAACAAAGAAAAUCUGGGCCAGGCAGGCAUCAAAAGAAAUCGUCUUGCGCUCAACCAGAAAGUCUGUAAUCAUUUUAAGGGUA [A47U A98C], the self-cleavage was 1.44.
For GUUAACGGUCAUAGGCCAUGGAAACUAGGAGCACCAUUUCGCUGCCUGUGAAGAAAUGAACGAAGAAAAUCUGGGCCAGGCAGGCAUCAAAAGAAAUAGUCUUGCGCUCAACCAGAAAGUCUGUAAUCAUUUUAAGGGUA [A47U A62G], the self-cleavage was 0.82.
With GUUAACGGUCAUAGGCCAUGGAAACUAGGAGCACCAUUUCGCUGCCUGUGAAGAAAUGAACAAAGAAAAUCUGGGCCAGGCAGGCAUCAAUAGAAAUAGUCUUGCGCUCAACCAGAAAGUCUGUAAUCAUUUUAAGGGUA [A47U A91U] the self-cleavage was 0.51.
With GUUAACGGUCAUAGGCCAUGGAAACUAGGAGCACCAUUUCGCUGCCUGUGAAGAAAUGAACAAAGAAAAUCUGGGCCAGGCAGGCAUCAAGAGAAAUAGUCUUGCGCUCAACCAGAAAGUCUGUAAUCAUUUUAAGGGUA [A47U A91G] the self-cleavage was 0.88.
GUUAACGGUCAUAGGCCAUGGAAACUAGGAGCACCAUUUCGCUGCCUGUGAAGAAAUGAACAAAGAAAAUCUGGGCCAGGCAGGCAUCAAAGGAAAUAGUCUUGCGCUCAACCAGAAAGUCUGUAAUCAUUUUAAGGGUA [A47U A92G] showed a self-cleavage of 0.84.
Variant GUUAACGGUCAUAGGCCAUGGAAACUAGGAGCACCAUUUCGCUGCCUGUGAAGAAAUGAACAAAGAAAAUCUGGGCCAGGCAGGCAUCAAAAGAAAUAGUCUUGCGCUCCACCAGAAAGUCUGUAAUCAUUUUAAGGGUA [A47U A110C] has a self-cleavage of 0.13.
In the case of GUUAACGGUCAUAGGCCAUGGAAACUAGGAGCACCAUUUCGCUGCCUGUGAAGAAAUGAACAAAGAAAAUCUGGGCCAGGCAGGCAUCAAAAGAAAUAGUCUUGCGCUCGACCAGAAAGUCUGUAAUCAUUUUAAGGGUA [A47U A110G], the self-cleavage is reported as 0.05.
Work on GUUAACGGUCAUAGGCCAUGGAAACUAGGAGCACCAUUUCGCUGCCUGUGAAGAAAUGAACAAGGAAAAUCUGGGCCAGGCAGGCAUCAAAAGAAAUAGUCUUGCGCUCAACCAGAAAGUCUGUAAUCAUUUUAAGGGUA [A47U A64G] yielded a self-cleavage of 0.61.
Work on GUUAACGGUCAUAGGCCAUGGAAACUAGGAGCACCAUUUCGCUGCCUGUGAAGAAAUGAACAAAGAAUAUCUGGGCCAGGCAGGCAUCAAAAGAAAUAGUCUUGCGCUCAACCAGAAAGUCUGUAAUCAUUUUAAGGGUA [A47U A68U] yielded a self-cleavage of 0.73.
Variant GUUAACGGUCAUAGGCCAUGGAAACUAGGAGCACCAUUUCGCUGCCUGUGAAGAAAUGACCAAAGAAAAUCUGGGCCAGGCAGGCAUCAAAAGAAAUAGUCUUGCGCUCAACCAGAAAGUCUGUAAUCAUUUUAAGGGUA [A47U A60C] has a self-cleavage of 0.14.
In the case of GUUAACGGUCAUAGGCCAUGGAAACUAGGAGCACCAUUUCGCUGCCUGUGAAGAAAUGAUCAAAGAAAAUCUGGGCCAGGCAGGCAUCAAAAGAAAUAGUCUUGCGCUCAACCAGAAAGUCUGUAAUCAUUUUAAGGGUA [A47U A60U], the self-cleavage is reported as 0.75.
GUUAACGGUCAUAGGCCAUGGAAACUAGGAGCACCAUUUCGCUGCCGGUGAAGAAAUGAACAAAGAAAAUCUGGGCCAGGCAGGCAUCAAAAGAAAUAGCCUUGCGCUCAACCAGAAAGUCUGUAAUCAUUUUAAGGGUA [A47G U100C] gave a self-cleavage of 1.85.
GUUAACGGUCAUAGGCCAUGGAAACUAGGAGCACCAUUUCGCUGCCUGUGAAGAAAUGAACAAAGAAAAUCUGGGCCAGGCAGGCAUCAAAAGAAAUAGUCUUGCGCUCAACCAGAGAGUCUGUAAUCAUUUUAAGGGUA [A47U A117G] showed a self-cleavage of 1.25.
Variant GUUAACGGUCAUAGGCCAUGGAAACUAGGAGCACCAUUUCGCUGCCUGUGAAGAAAUGAACAAAGAAAAUCUGGGCCAGGCAGGCAUCAAAAGAAAUAGUCUUGCGCUCAACCAGAUAGUCUGUAAUCAUUUUAAGGGUA [A47U A117U] has a self-cleavage of 0.71.
GUUAACGGUCAUAGGCCAUGGAAACUAGGAGCACCAUUUCGCUGCCGGUGAAGAAAUGAACAAAGAAAAUCUGGGCCAGGCAGGCAUCAAAAGAAAUAGUCUCGCGCUCAACCAGAAAGUCUGUAAUCAUUUUAAGGGUA [A47G U103C] gave a self-cleavage of 0.34.
GUUAACGGUCAUAGGCCAUGGAAACUAGGAGCACCAUUUCGCUGCCUGUGAAGAAAUGAACAAAGAAAAUCUGGGCCAGGCAGGCAUCGAAAGAAAUAGUCUUGCGCUCAACCAGAAAGUCUGUAAUCAUUUUAAGGGUA [A47U A89G] gave a self-cleavage of 0.86.
GUUAACGGUCAUAGGCCAUGGAAACUAGGAGCACCAUUUCGCUGCCUGUGAAGAAAUGAACAAAGAAAAUCUGGGCCAGGCAGGCAUCUAAAGAAAUAGUCUUGCGCUCAACCAGAAAGUCUGUAAUCAUUUUAAGGGUA [A47U A89U] showed a self-cleavage of 0.95.
Variant GUUAACGGUCAUAGGCCAUGGAAACUAGGAGCACCAUUUCGCUGCCUGUGAAGAAAUGAACAAAGAAAAUCUGGGCCUGGCAGGCAUCAAAAGAAAUAGUCUUGCGCUCAACCAGAAAGUCUGUAAUCAUUUUAAGGGUA [A47U A78U] has a self-cleavage of 0.25.
Variant GUUAACGGUCAUAGGCCAUGGAAACUAGGAGCACCAUUUCGCUGCCUGUGAAGAAAUGAACAAAGAAAAUCUGGGCCAGGCAGGCAUCAAAAGAAGUAGUCUUGCGCUCAACCAGAAAGUCUGUAAUCAUUUUAAGGGUA [A47U A96G] has a self-cleavage of 1.28.
